According to PMC5858766, “Identification of aaNAT5b as a spermine N-acetyltransferase in the mosquito, Aedes aegypti” (PLoS ONE, 2018):

How the values were obtained:
Test in all cases: purified protein
Assay type in all cases: biochemical, Aedes aegypti
Settings in all cases: 0.4 mM acetyl-CoA, 50 mM Tris-HCl, 1 mg/mL BSA, room temperature, 5 min; apparent Km
purified protein [1] = substrate: NN
purified protein [2] = substrate: NCCCCN
purified protein [3] = substrate: NCCCNCCCCNCCCN
purified protein [4] = substrate: N=C(N)NCCCCN
purified protein [5] = substrate: NCCCCNCCCN
purified protein [6] = substrate: NCCc1c[nH]cn1

B1: aaNAT5b/SAT (Aedes aegypti) (protein)
chain: MVAPESIVLRVARLDELEQVREILHRIYYPEEGITISYVHGKSHTLDDERFSLSFVEQGTVVVAEDSAAKKFIGVSIAGPIQPGDPDAMVEEAATTETKKWGDILKLLALLERTADVCGRYGLEKAYHVHILAVDPTYRGHSLGQRLLQFQMDLSKKLGFKAISGDFTSVFSVKLAEKLGMECISQLALGDYRDEKGEKLFEPLDVHQVIKTCVKLL
notes: about 25 kDa; monomer
In the case of B1, the Km (purified protein [1]) is reported as 260 ± 30 µM, the kcat (purified protein [1]) is reported as 0.637 ± 0.0283 s⁻¹ and the kcat/Km (purified protein [1]) is reported as 2450 M⁻¹ s⁻¹. The Km (purified protein [2]) was 520 ± 110 µM, the kcat (purified protein [2]) was 0.503 ± 0.0267 s⁻¹ and the kcat/Km (purified protein [2]) was 967 M⁻¹ s⁻¹. For the same protein, the Km (purified protein [3]) was 170 ± 40 µM, the kcat (purified protein [3]) was 3.32 ± 0.2 s⁻¹ and the kcat/Km (purified protein [3]) was 19500 M⁻¹ s⁻¹. For the same protein, the Km (purified protein [4]) was 210 ± 50 µM, the kcat (purified protein [4]) was 2.5 ± 0.183 s⁻¹ and the kcat/Km (purified protein [4]) was 11900 M⁻¹ s⁻¹. The Km (purified protein [5]) was 690 ± 120 µM, the kcat (purified protein [5]) was 0.26 ± 0.0233 s⁻¹ and the kcat/Km (purified protein [5]) was 383 M⁻¹ s⁻¹. For the same protein, the Km (purified protein [6]) was 700 ± 130 µM, the kcat (purified protein [6]) was 0.277 ± 0.0217 s⁻¹ and the kcat/Km (purified protein [6]) was 400 M⁻¹ s⁻¹.
